These results are taken from patent US7667100B2, “Nucleic acid compositions conferring herbicide resistance” (Dow AgroSciences LLC, priority 2002, dated 2010).

For series [1], the system named is Nicotiana benthamiana. As to the kind of experiment: Evaluation of auxin tolerance in greenhouse plants inoculated with clone transcript and sprayed with herbicide. It counts as in vivo. As to conditions: for reproducibility of auxin tolerance from Trial #1 to Trial #2: greenhouse, 30% or more of test population tolerant by 14 dat. On the procedure:
All primary hit sequences were evaluated for tolerance in larger plants, maintained under greenhouse conditions as described below.
Plant Growth and Maintenance. Nb seeds were sown in 6.5 cm pots filled with Redi-earth medium (The Scotts Company, Marysville, Ohio) pre-wetted by injection of Hoagland's fertilizer solution [all from the Scotts Company: 147 kg Peters Excel 15-15-15 Cal-Mag, 68 kg Peters Excel 15-0-0 Cal-Lite (15% Ca), and 45 kg Peters Excel 10-0-0 MagNitrate (10% Mg) in hot tap water to 596 L total volume] into irrigation water at a ratio of 200:1, using an injection system (H. E. Anderson, Muskogee Okla,). Seededpots were placed in the greenhouse for 1 day, transferred to a 27° C. germination chamber (Carolina Greenhouses, Kinston, N.C.) for 2 days, and then returned to the greenhouse. Shade curtains (33% transmittance) were used in the greenhouse to reduce solar intensity. To ensure 16 hour day length and supplement solar radiation on overcast days, artificial lighting consisting of a 1:1 mixture of metal halide and high pressure Sylvania sodium lamps was used, delivering approximately 220 μmol/m^2/s. Evaporative cooling and steam heat were used to maintain a daytime set point of 27° C. and a nighttime temperature of 22° C. At approximately 7 days post sowing (dps), seedlings were thinned to one seedling per pot and at 17 to 21 dps, the pots were spaced farther apart to accommodate plant growth. Plants were watered with Hoagland's solution as required. Following inoculation, waste irrigation water was collected and treated with 0.5% sodium hypochlorite for 10 minutes to neutralize any viral contamination before discharging into the municipal sewer.
Plant Inoculation. For each clone, 50 test plants as well as 10 GFP and bar (Thompson et al., EMBO J. 6:2519 [19870]) negative control plants were inoculated as follows: 2.0 mL of inoculum per clone were prepared by combining equal volumes of NCAP transcript and FES buffer [0.1 M glycine, 0.06 M K2HPO4, 1% sodium pyrophosphate, 1% diatomaceous earth (Sigma Chemical Company, St. Louis, Mo.), and either 1% silicon carbide (Aldrich Chemical Company, Milwaukee, Wis.), or 1% Bentonite (Sigma Chemical Company, St. Louis, Mo.)]. The inoculum was applied to each plant at 17 days post sowing by pipetting onto the upper surface of leaves 3 and 4 (˜20 μL per leaf). The inoculum was then spread across each leaf surface using a 3″ cotton tipped applicator (Calapro Swab, Fisher Scientific, Pittsburgh, Pa.) and a gloved finger to support the leaf. Following inoculation the plants were misted with deionized water.
Infection Scoring. At 8 days post inoculation (dpi), the plants were visually examined and a numerical score was assigned to each plant to indicate the extent of viral infection symptoms: 0=no infection, 1=possible infection, 2=infection symptoms limited to leaves <50-75% fully expanded, 3=typical systemic infection, 4=atypically severe infection, often accompanied by moderate to severe wilting and/or necrosis. Plants receiving an infection rating of 0, 1, or 4 were discarded.
Herbicide spraying. At 9 dpi, the well infected plants (infection score of 3, sometimes 2) were divided into 3 treatment groups. Group 1, to be sprayed with solvent only, contained 4 plants per test clone (2 plants per negative control) and Groups 2 and 3, to be treated with 13 or 40 g ae/ha, respectively, each consisted of 12 test plants per clone and 2 plants per negative control. […]

Series [2] deals with Nicotiana benthamiana. As to the kind of experiment: Cross-resistance testing against six auxin compounds (greenhouse). It counts as in vivo. The conditions noted are these: for tolerance to picloram (Compound #5): 10 g ae/ha and 1/2x; for tolerance to positive control 4-amino-3,6-dichloropyridine-2-carboxylic acid (Compound #6): 10 g ae/ha and 1/2x (5 g ae/ha); for tolerance to dicamba (Compound #3): 64 g ae/ha and 1/2x; for tolerance to quinclorac (Compound #1): 200 g ae/ha and 1/2x; for extent of cross-resistance to the six auxin compounds: two trials, two doses per auxin, thresholds 25% or 35% injury or less. The source says:
Six compounds, representing five classes of auxin chemistry, were selected for testing the extent of auxinic tolerance of five hit sequences (129965 (SEQ ID NO:10), 130213 (SEQ ID NO: 14), 130294 (SEQ ID NO:360), 130994 (SEQ ID NO:361), and 129870 (SEQ ID NO:359)). The compounds included the following: • 1) quinclorac (BASF Corp., Research Triangle, N.C.) • 2) (2,4-dichlorophenoxy) acetic acid (Dow AgroSciences, Indianapolis, Ind.) • 3) dicamba (Monsanto, St. Louis, Mo.) • 4) benazolin (AgrEvo USA Company, Wilmington, Del.) • 5) picloram (Dow AgroSciences, Indianapolis, Ind.) • 6) 4-amino-3,6-dichloropyridine-2-carboxylic acid (Dow AgroSciences, Indianapolis, Ind.) Compound #6 served as a positive control, as these five sequences were identified for their herbicide tolerant function using this auxin (see Example 9). Compound #1 represents the quinoline carboxylic acid chemical family, #2 is in the phenoxy carboxylic acid class, #3 is benzoic acid chemistry, #4 is unique to any currently defined class, and #5 is in the same family as the positive control, pyridine carboxylic acids.
The protocol was essentially the same as that described in Example 9 for greenhouse evaluations. However, an individual experiment consisted of 200 test plants plus 35 GFP and 35 bar negative control plants inoculated per clone. […] Two doses per auxin were tested, with as many as 12 well-infected test plants and 2 of each of the negative controls per dose.
The six auxin solutions were prepared by dissolving solid compound in General Purpose Solvent (GPS: 97%DMSO: 3% acetone) to achieve the following spray rates (g ae/ha) when using the spray applicator and parameters outlined in Example 9: Compound #1) 200; 2) 42; 3) 64; 4) 200; 5) 10; 6) 10. From each of these solutions, a portion was diluted with an equal volume of GPS, resulting in 1× (“high dose”) and ½× (“low dose”) concentrations for spraying. Before spray application, each auxin solution was mixed with an equal volume of diluent containing surfactants for effective penetration. The diluent was prepared as follows: 420 mL GPS, 460 mL DI water, 120 mL isopropyl alcohol, 10.167 mL Agri-Dex (Helena Chemical Co., Memphis, Tenn.), and 0.167 mL Triton X-155 (Sigma Chemical Co., St. Louis, Mo.). In addition to the 200 and 100 g ae/ha rates tested for Compound #4 (benazolin), a concentration of 250 g ae/ha was also formulated as described above and tested.
Plants were sprayed and evaluated as described in Example 9. FIG. 7 summarizes the sequences tested and the highest dose of the compounds against which tolerance was observed. […] Results are reported in FIG. 7 for each of the trials with each construct.
The positive control (Compound #6) was formulated differently in this set of evaluations from that described in Example 9, for consistency in the solvent/surfactant background from which to compare the activity of the individual sequences against each auxin. Thus, the spray rate used for evaluation was lower than previous experiments, 5 vs. 13 g ae/ha. The need to lower the dose with this formulation to prevent total chlorosis and/or necrosis was likely due to the addition of DMSO, Agri-Dex, and Triton X-155 which were not used in Example 9.

B1: 130213: Poppy cDNA clone; auxin tolerance hit sequence (nucleic acid)
DNA: TTAATTAAGTCGACGAATTCATATGAAGAAATGGTTGAATTTATGGAAAAAGTAACAACAAATGTTGAATCAGAGGAACTTTCAGTTGAAGAGAGAAATTTATTGTCAGTTGCTTACAAAAATGTGATTGGTGCACGCAGAGCATCATGGAGAATTATTTCATCAATTGAACAGAAAGAAGAAAGCCGTGGTAACGAAGAGAATGTATTGACCATTCGTGATTATAGATCTAAGATTGAAACTGAACTTTCAGGCATCTGTGATGGGATTTTGAAGTTGCTTGATACTAGATTGATTCCATCTGCATCTTCTGGTGATTCTAAAGTGTTTTATTTGAAAATGAAAGGTGATTATCATCGTTATTTGGCTGAGTTTAAAACTGGTACCGAAAGGAAAGAAGCTGCTGAAAGTACCCTTTCTGCTTATAAATCTGCTCAGGATATCGCAACTGCTGAACTTGCACCCACTCACCCAATCAGGCTGGGACTTGCTCTTAACTTTCTCCGTCTTTTACTACGAGATCTTGAATTCTCCTGCCGTGCTTGTAATCTCGCCAAACAGGCATTTGATGAGGCTATCGCGGAGCTGGATACCCTTGGTGAAGAATCATACAAAGACAGCACTCTAATCATGCAGCTCCTTCGTGACAATCTTACTCTGTGGACCTCCGACATGCAGGATGATGGTGCAGATGAAATTAAAGAAGCATCCAAGCCTGAAGATGAACATTAATGATAGTTTGTCTGCCACATTTAGGATCTTACCTCCTCTCAGTTTGTTTTATTAAAAGGAGAAGGTGCTTTCTTGGTACACAACTCCTCCAAGTCTACTATTAATTATTAAGGAGTTTAGGGTGGGTACTGTTAGTTTGTCATTCTTCTTATCCTTTGTGCTCGTCTTTTCCTATCTTAATTCTTCTCTTAAAAGAGTTTGAAGTTATATGTTTATCTGAATCTGTGTGGGAACTCCGTTTTATCTAAATTATCTTTTAAGATGACGATAAAAAAAAAAAAAAAAAAA
modifications: Poppy
For the molecule B1, the “plants demonstrating auxin tolerance” value in series [1] (14 days after treatment (dat), 130213 homolog trial, tolerance = 25% injury or less after 13 or 40 g ae/ha 4-amino-3,6-dichloropyridine-2-carboxylic acid) came to 17%. The “reproducibility of auxin tolerance from Trial #1 to Trial #2” value in series [1] was “reproducible auxin tolerance”. In addition, in series [2], the “tolerance to picloram (Compound #5)” value is “additional tolerance to picloram and quinclorac when the 35% injury tolerance criterion was used”; the “tolerance to positive control 4-amino-3,6-dichloropyridine-2-carboxylic acid (Compound #6)” value was “tolerance consistently occurred at the lower threshold (25% injury or less)”; the “tolerance to dicamba (Compound #3)” value is on record as “strongly effective”; the “tolerance to quinclorac (Compound #1)” value was “additional tolerance to picloram and quinclorac when the 35% injury tolerance criterion was used”. For the same molecule, the “extent of cross-resistance to the six auxin compounds” value in series [2] was “tolerance was observed against four compounds”.

B2: 130294: Poppy cDNA clone; auxin tolerance hit sequence (nucleic acid)
DNA: TTAATTAAGTCGACGAATTCACATCTAAAGTCAACAACAAGAGCTTCTCTCTTCTCCTCGTCTCTGTTCTCCTCTCTTTTGCAATCCTCTCTCAATCTGCTGATGATTGTGTATACACAGTATACACAAGAACAGGATCAATCATCAAAGGAGGAACGGATTCAAAAATCTCACTAAGATTATACAGCAAATACGGTAAGTACATCGAGATCCCAAATCTTGAATCATGGGGTGGATTAATGGGTCCTGGTTACGATTATTTCGAAAGAGGTAATCTTGATATCTTCAGCGGAAGAGGTTATTGTCTGGGTTCACCGGTTTGTGCCATGAATCTGACTTCCGATGGTACTGGTTCCGGTCACGGATGGTATGTGAATTATGTTGAAGTTACTACTACCGGTGCACATATTAATTGTGGTCAACAGAATTTTGAAGTGGAAGATTGGCTTGCTCTTGATAGATCTCCTTATAGTCTTACCGCTATCAAGAATAATTGTAATCAGAAATTATCTGATCATGATTCTCATTCTGCTGATCAGTCTATGTAAAATTTGATCTCTTGTTTGATTCGGTGGTGGTCTAGTATGAGTGATCGGACGGTCGTCATTGTGTGTTGTAATGTTGAAATTATTTTCTTGAATAAAATGATTGAGTGAGTAGTGTTTGATTTTGCTTGGCCATCTTAGACATGATGGTGAGACTGTTTCTCGATTCGATGCAATTTTTTGGTTTTCTTGGTTGCAATCAATTCACGTTTGGTGAAAAAAAAAAAAAAAAAAAAAAAAAAAAAAAAAAAAAAAAAAAA
modifications: Poppy
On to B2, for which the “reproducibility of auxin tolerance from Trial #1 to Trial #2” value in series [1] is listed as “reproducible auxin tolerance”. In series [2], the “tolerance to picloram (Compound #5)” value is “clear resistance to dicamba and picloram when the 35% rating was considered”; the “tolerance to positive control 4-amino-3,6-dichloropyridine-2-carboxylic acid (Compound #6)” value was “tolerance consistently occurred at the lower threshold (25% injury or less)”; the “tolerance to dicamba (Compound #3)” value is “clear resistance to dicamba and picloram when the 35% rating was considered”; the “tolerance to quinclorac (Compound #1)” value is “consistently tolerant to quinclorac exposure at the 25% injury threshold”. For the same molecule, the “extent of cross-resistance to the six auxin compounds” value in series [2] was “tolerance was observed against four compounds”.
